Results on one molecule are retold here after publication PMC2735845.

The data set addresses RecQ;SSB113 (Escherichia coli;Escherichia coli, UniProt P15043;P0AGE0 1-609;2-178, |P177S). Kind of data set: EMSA. On the technique in general: A gel shift assay detects complexes by their altered migration in electrophoresis.

B1: 3'-OH partial duplex (o100/o30) (mixed)
DNA 1: GACGCTCGGTTCGTCTAGGACCGTCATTAGTATGTTGATATACATAGACCTTACCGCAGTGATTCGCTTGTCAGTCCATTGAAGCACAATTACCCACGC
DNA 2: CTAATGACGGTCCTAGACGAACCGAGCGTC
Turning to B1, the binding result is “binds”.
